Target: GAL4 DBD-BEAF-32B (Drosophila)
Test: two-hybrid; GAL4 AD fusions (pOAD) against GAL4 DBD fusions (pOBD2) in yeast; 50 to 100 colonies with both plasmids scored for growth on medium lacking adenine and histidine, with X-α-Gal

Sequence of GAL4 DBD-BEAF-32B (Drosophila) (main, as listed by the source): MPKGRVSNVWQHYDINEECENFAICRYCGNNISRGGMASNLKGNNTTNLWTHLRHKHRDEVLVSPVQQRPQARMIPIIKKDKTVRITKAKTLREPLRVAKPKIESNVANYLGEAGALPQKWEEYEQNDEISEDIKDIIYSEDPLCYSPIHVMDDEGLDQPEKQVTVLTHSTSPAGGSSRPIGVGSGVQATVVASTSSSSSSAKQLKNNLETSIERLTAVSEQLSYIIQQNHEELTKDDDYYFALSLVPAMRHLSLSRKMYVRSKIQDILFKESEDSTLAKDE

% of Y2H colonies expressing the reporter genes: 20%
Substance: GAL4 AD-Pbro BD4–5 (domain or fragment)

Reference: paper PMC9635645
